Results on three molecules are retold here after paper doi:10.1101/2024.07.16.603699 (bioRxiv, 2024).

First the molecules themselves.
T1: Saccharolobus solfataricus ribosomal protein uS13 (S. solfataricus (endogenous in the …, UniProt P95986 1-165))
T1 sequence (looked up): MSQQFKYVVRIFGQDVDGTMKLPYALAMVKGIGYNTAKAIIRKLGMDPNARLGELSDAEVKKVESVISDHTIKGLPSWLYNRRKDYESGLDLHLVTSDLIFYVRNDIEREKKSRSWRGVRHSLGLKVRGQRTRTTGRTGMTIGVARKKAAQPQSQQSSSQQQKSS

T2: Saccharolobus solfataricus ribosomal protein uS3 (S. solfataricus (endogenous in the …, UniProt Q9UXA0 1-229))
T2 sequence (looked up): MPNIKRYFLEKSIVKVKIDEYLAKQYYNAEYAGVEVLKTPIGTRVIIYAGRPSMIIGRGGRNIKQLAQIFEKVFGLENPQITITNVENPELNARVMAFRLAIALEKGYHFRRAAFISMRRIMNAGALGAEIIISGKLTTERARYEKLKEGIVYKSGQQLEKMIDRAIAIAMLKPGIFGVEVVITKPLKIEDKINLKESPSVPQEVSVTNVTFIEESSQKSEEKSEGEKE

B1: Saccharolobus solfataricus ribosomal protein eS25 (natural protein, UniProt Q97ZZ6 1-110, looked up)
chain: MGGASKKPISTMEKRLKKEAEKQQKAEEKKKGPSKTGKEIISRAVTIDEETKKKVLDEIKKESIITPYALATKSGISISVARKILKELENQNVVKLYSKNRRLEIYIAAS
B2: Saccharolobus solfataricus ribosomal protein uS14 (natural protein, UniProt Q97ZQ5 1-54, looked up)
chain: MGKYKPPAERKYGKGVQSCQRCGSKDSVIQKYGIYLCRQCFREVAYELGFRKYW
B3: Saccharolobus solfataricus ribosomal protein aS34 (natural protein, UniProt Q97ZK4 1-72, looked up)
chain: MSIKNRGSNAYGHLGWLTVYCRICNRKLIIGTDILYKCPKCEKKYSAYFCEADKRGLKGKCPYCGTELVPIL

Assay in all cases: cryo-EM structure
Assay [1] deals with T1, Saccharolobus solfataricus ribosomal ….
For assay [2], the target named is B3.
Assay [3] deals with T2, Saccharolobus solfataricus ribosomal ….

For the molecule B1, the binding result in assay [1] is on record as “binds”. Consider B2, for which the binding result in assay [2] is “binds”. For B3, the binding result in assay [3] was “binds”.
